Source: US20070105771A1 (Y S THERAPEUTICS, published 2007)

Tests used:
[1] = biological target: human CD26 on the cell surface (human, UniProt P27487 1-766); assay: cell-based or functional assay
[2] = biological target: T1, human CD26-derived 13 mer peptide 112 (human); assay: peptide microarray
T1 peptide: VVNTDSLSSVTNA
Method: (§1) The overnight incubation was followed by three washings with each of PBS buffer pH 7.5 and water. The microarrays were then scanned using ArrayWorx-Microarray Scanner.
(§2) The SPOT recognition software package ArrayPro was used for data analysis. The mean of signal intensities from 3 identical subarrays on each microarray image was used for data evaluation.

[3] = biological target: T2, human CD26-derived 13 mer peptide 44 (human); assay: peptide microarray
T2 peptide: IYDLNKRQLITEE
Method: as §1, §2

[4] = biological target: T3, human CD26-derived 13 mer peptide 116 (human); assay: peptide microarray
T3 peptide: SVTNATSIQITAP
Method: as §1, §2

[5] = biological target: T4, human CD26-derived 13 mer peptide 9 (human); assay: peptide microarray
T4 peptide: SDHEYLYKQENNI
Method: as §1, §2

[6] = biological target: T5, human CD26-derived 13 mer peptide 88 (human); assay: peptide microarray
T5 peptide: FLAYAQFNDTEVP
Method: as §1, §2

[7] = biological target: T6, human CD26-derived 13 mer peptide 51 (human); assay: peptide microarray
T6 peptide: IPNNTQWVTWSPV
Method: as §1, §2

[8] = biological target: T7, human CD26-derived 13 mer peptide 74 (human); assay: peptide microarray
T7 peptide: IYNGITDWVYEEE
Method: as §1, §2

[9] = biological target: T8, human CD26-derived 13 mer peptide 46 (human); assay: peptide microarray
T8 construct: also called NKRQL1TEERIPN
T8 peptide: NKRQLITEERIPN
Method: as §1, §2

[10] = biological target: T9, human CD26-derived 13 mer peptide 99 (human); assay: peptide microarray
T9 peptide: ESLQYPKTVRVPY
Method: as §1, §2

[11] = biological target: T10, human CD26-derived 13 mer peptide 19 (human); assay: peptide microarray
T10 peptide: GNSSVFLENSTFD
Method: as §1, §2

[12] = biological target: T11, human CD26-derived 13 mer peptide 23 (human); assay: peptide microarray
T11 peptide: NSTFDEFGHSIND
Method: as §1, §2

[13] = biological target: T12, human CD26-derived 13 mer peptide 103 (human); assay: peptide microarray
T12 peptide: VRVPYPKAGAVNP
Method: as §1, §2

[14] = biological target: T13, human CD26-derived 13 mer peptide 20 (human); assay: peptide microarray
T13 peptide: SSVFLENSTFDEF
Method: as §1, §2

[15] = biological target: T14, human CD26-derived 13 mer peptide 25 (human); assay: peptide microarray
T14 peptide: DEFGHSINDYSIS
Method: as §1, §2

[16] = biological target: T15, human CD26-derived 13 mer peptide 96 (human); assay: peptide microarray
T15 peptide: YSFYSDESLQYPK
Method: as §1, §2

[17] = biological target: T16, human CD26-derived 13 mer peptide 113 (human); assay: peptide microarray
T16 peptide: NTDSLSSVTNATS
Method: as §1, §2

[18] = biological target: T17, human CD26-derived 13 mer peptide 26 (human); assay: peptide microarray
T17 peptide: FGHSINDYSISPD
Method: as §1, §2

[19] = biological target: T18, human CD26-derived 13 mer peptide 24 (human); assay: peptide microarray
T18 peptide: TFDEFGHSINDYS
Method: as §1, §2

[20] = biological target: T19, human CD26-derived 13 mer peptide 14 (human); assay: peptide microarray
T19 peptide: NNILVFNAEYGNS
Method: as §1, §2

[21] = biological target: T20, human CD26-derived 13 mer peptide 117 (human); assay: peptide microarray
T20 peptide: TNATSIQITAPAS
Method: as §1, §2

[22] = biological target: T21, human CD26-derived 13 mer peptide 106 (human); assay: peptide microarray
T21 peptide: KAGAVNPTVKFFV
Method: as §1, §2

[23] = biological target: T22, human CD26-derived 13 mer peptide 119 (human); assay: peptide microarray
T22 peptide: SIQITAPASMLIG
Method: as §1, §2

[24] = biological target: T23, human CD26-derived 13 mer peptide 61 (human); assay: peptide microarray
T23 peptide: WNNDIYVKIEPNL
Method: as §1, §2

[25] = biological target: T24, human CD26-derived 13 mer peptide 21 (human); assay: peptide microarray
T24 peptide: VFLENSTFDEFGH
Method: as §1, §2

[26] = biological target: T25, human CD26-derived 13 mer peptide 90 (human); assay: peptide microarray
T25 peptide: AQFNDTEVPLIEY
Method: as §1, §2

[27] = biological target: T26, human CD26-derived 13 mer peptide 100 (human); assay: peptide microarray
T26 peptide: LQYPKTVRVPYPK
Method: as §1, §2

[28] = biological target: T27, human CD26-derived 13 mer peptide 122 (human); assay: peptide microarray
T27 peptide: PASMLIGDHYLCD
Method: as §1, §2

[29] = biological target: T28, human CD26-derived 13 mer peptide 18 (human); assay: peptide microarray
T28 peptide: EYGNSSVFLENST
Method: as §1, §2

[30] = biological target: T29, human CD26-derived 13 mer peptide 114 (human); assay: peptide microarray
T29 peptide: DSLSSVTNATSIQ
Method: as §1, §2

[31] = biological target: T30, human CD26-derived 13 mer peptide 22 (human); assay: peptide microarray
T30 peptide: LENSTFDEFGHSI
Method: as §1, §2

[32] = biological target: T31, human CD26-derived 13 mer peptide 102 (human); assay: peptide microarray
T31 peptide: KTVRVPYPKAGAV
Method: as §1, §2

[33] = biological target: T32, human CD26-derived 13 mer peptide 104 (human); assay: peptide microarray
T32 peptide: VPYPKAGAVNPTV
Method: as §1, §2

[34] = biological target: T33, human CD26-derived 13 mer peptide 111 (human); assay: peptide microarray
T33 peptide: FFVVNTDSLSSVT
Method: as §1, §2

[35] = biological target: T34, human CD26-derived 13 mer peptide 45 (human); assay: peptide microarray
T34 peptide: DLNKRQLITEERI
Method: as §1, §2

[36] = biological target: T35, human CD26-derived 13 mer peptide 42 (human); assay: peptide microarray
T35 peptide: ASYDIYDLNKRQL
Method: as §1, §2

[37] = biological target: T36, human CD26-derived 13 mer peptide 105 (human); assay: peptide microarray
T36 peptide: YPKAGAVNPTVKF
Method: as §1, §2

[38] = biological target: T37, human CD26-derived 13 mer peptide 27 (human); assay: peptide microarray
T37 peptide: HSINDYSISPDGQ
Method: as §1, §2

[39] = biological target: T38, human CD26-derived 13 mer peptide 110 (human); assay: peptide microarray
T38 peptide: VKFFVVNTDSLSS
Method: as §1, §2

[40] = biological target: T39, human CD26-derived 13 mer peptide 115 (human); assay: peptide microarray
T39 peptide: LSSVTNATSIQIT
Method: as §1, §2

[41] = biological target: T40, human CD26-derived 13 mer peptide 120 (human); assay: peptide microarray
T40 peptide: QITAPASMLIGDH
Method: as §1, §2

[42] = biological target: T41, human CD26-derived 13 mer peptide 49 (human); assay: peptide microarray
T41 construct: also called TEERJPNNTQWVT
T41 peptide: TEERIPNNTQWVT
Method: as §1, §2

[43] = biological target: T42, human CD26-derived 13 mer peptide 12 (human); assay: peptide microarray
T42 peptide: YKQENNILVFNAE
Method: as §1, §2

[44] = biological target: T43, human CD26-derived 13 mer peptide 130 (human); assay: peptide microarray
T43 peptide: ATQERISLQWLRR
Method: as §1, §2

[45] = biological target: T44, human CD26-derived 13 mer peptide 108 (human); assay: peptide microarray
T44 peptide: VNPTVKFFVVNTD
Method: as §1, §2

[46] = biological target: T45, human CD26-derived 13 mer peptide 118 (human); assay: peptide microarray
T45 peptide: ATSIQITAPASML
Method: as §1, §2

[47] = biological target: T46, human CD26-derived 13 mer peptide 47 (human); assay: peptide microarray
T46 peptide: RQLITEERIPNNT
Method: as §1, §2

[48] = biological target: T47, human CD26-derived 13 mer peptide 109 (human); assay: peptide microarray
T47 peptide: PTVKFFVVNTDSL
Method: as §1, §2

[49] = biological target: T48, human CD26-derived 13 mer peptide 89 (human); assay: peptide microarray
T48 peptide: AYAQFNDTEVPLI
Method: as §1, §2

Sequence of human CD26 on the cell surface (P27487 whole entry): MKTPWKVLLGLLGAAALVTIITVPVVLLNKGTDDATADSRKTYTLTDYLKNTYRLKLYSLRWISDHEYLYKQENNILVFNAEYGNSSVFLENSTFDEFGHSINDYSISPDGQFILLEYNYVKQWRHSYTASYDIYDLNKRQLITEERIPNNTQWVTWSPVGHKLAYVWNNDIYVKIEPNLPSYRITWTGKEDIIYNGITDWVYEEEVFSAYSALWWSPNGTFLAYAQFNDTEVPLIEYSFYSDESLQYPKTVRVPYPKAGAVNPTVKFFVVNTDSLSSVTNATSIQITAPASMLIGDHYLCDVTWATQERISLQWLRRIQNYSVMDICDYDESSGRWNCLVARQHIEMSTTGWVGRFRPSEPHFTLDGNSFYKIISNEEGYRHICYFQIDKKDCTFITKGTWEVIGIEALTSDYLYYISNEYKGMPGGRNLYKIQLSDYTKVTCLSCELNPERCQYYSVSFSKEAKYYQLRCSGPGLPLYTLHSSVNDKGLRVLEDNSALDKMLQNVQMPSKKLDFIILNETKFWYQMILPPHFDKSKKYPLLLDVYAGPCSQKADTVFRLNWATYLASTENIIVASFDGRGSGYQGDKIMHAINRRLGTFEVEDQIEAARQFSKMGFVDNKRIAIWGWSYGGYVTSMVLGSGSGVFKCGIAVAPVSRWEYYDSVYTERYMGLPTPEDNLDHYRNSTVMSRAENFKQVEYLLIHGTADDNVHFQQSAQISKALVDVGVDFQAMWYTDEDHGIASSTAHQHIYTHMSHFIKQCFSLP

B1: rhuMAb 409 (antibody, human IgG1, V domains shown)
VH: QVKLQESGPGLVQPSQTLSITCTVSGFSLTTYGVHWVRQSPGKGLEWLGVIWGGGRTDYDAAFISRLSISKDNSKSQVFFKMNSLQANDTAIYYCVRNRHDWFDYWGQGTTVTVSS
VL: DIQMTQSPSSLSASLGDRVTITCSASQGIRNSLNWYQQKPDGAVKLLIYYSSNLHSGVPSRFSGSGSGTDFSLTISNLEPEDIATYYCQQSIKLPFTFGSGTKLEIKR
notes: CM03 VH and VL with human IgG1 heavy chain constant region and human kappa constant region; also called X409
Q: What does the source list for B1?
A: percent inhibition, MTT assay, Jurkat CD26+ cells, 0.05 ug/ml [1]: 4.8%; percent inhibition, MTT assay, Jurkat CD26+ cells, 0.25 ug/ml [1]: 12.9%; percent inhibition, MTT assay, Jurkat CD26+ cells, 0.5 ug/ml [1]: 14.7%; percent inhibition, MTT assay, Jurkat CD26+ cells, 2.5 ug/ml [1]: 19.7%; percent inhibition, MTT assay, Jurkat CD26+ cells, 5 ug/ml [1]: 21.7%; Mean Signal Value [2]: 0; Mean Signal Value [3]: 0; Mean Signal Value [4]: 0; Mean Signal Value [5]: 0; Mean Signal Value [6]: 0; Mean Signal Value [7]: 0; Mean Signal Value [8]: 0; Mean Signal Value [9]: 0; Mean Signal Value [10]: 0; Mean Signal Value [11]: 0; Mean Signal Value [12]: 0; Mean Signal Value [13]: 0; Mean Signal Value [14]: 0; Mean Signal Value [15]: 0; Mean Signal Value [16]: 0; Mean Signal Value [17]: 0; Mean Signal Value [18]: 0; Mean Signal Value [19]: 0; Mean Signal Value [20]: 0; Mean Signal Value [21]: 0; Mean Signal Value [22]: 0; Mean Signal Value [23]: 0; Mean Signal Value [24]: 0; Mean Signal Value [25]: 0; Mean Signal Value [26]: 0; Mean Signal Value [27]: 0; Mean Signal Value [28]: 0; Mean Signal Value [29]: 0; Mean Signal Value [30]: 0; Mean Signal Value [31]: 0; Mean Signal Value [32]: 0; Mean Signal Value [33]: 0; Mean Signal Value [34]: 0; Mean Signal Value [35]: 0; Mean Signal Value [36]: 0; Mean Signal Value [37]: 0; Mean Signal Value [38]: 0; Mean Signal Value [39]: 0; Mean Signal Value [40]: 0; Mean Signal Value [41]: 0; Mean Signal Value [42]: 0; Mean Signal Value [43]: 0; Mean Signal Value [44]: 10; Mean Signal Value [45]: 0; Mean Signal Value [46]: 0; Mean Signal Value [47]: 0; Mean Signal Value [48]: 0; Mean Signal Value [49]: 0
